What was measured:
GA-1 DNA polymerase = molecular target: T1, GA-1 DNA polymerase (Bacillus phage GA-1, UniProt Q96206 1-578); assay: EMSA
T1 sequence: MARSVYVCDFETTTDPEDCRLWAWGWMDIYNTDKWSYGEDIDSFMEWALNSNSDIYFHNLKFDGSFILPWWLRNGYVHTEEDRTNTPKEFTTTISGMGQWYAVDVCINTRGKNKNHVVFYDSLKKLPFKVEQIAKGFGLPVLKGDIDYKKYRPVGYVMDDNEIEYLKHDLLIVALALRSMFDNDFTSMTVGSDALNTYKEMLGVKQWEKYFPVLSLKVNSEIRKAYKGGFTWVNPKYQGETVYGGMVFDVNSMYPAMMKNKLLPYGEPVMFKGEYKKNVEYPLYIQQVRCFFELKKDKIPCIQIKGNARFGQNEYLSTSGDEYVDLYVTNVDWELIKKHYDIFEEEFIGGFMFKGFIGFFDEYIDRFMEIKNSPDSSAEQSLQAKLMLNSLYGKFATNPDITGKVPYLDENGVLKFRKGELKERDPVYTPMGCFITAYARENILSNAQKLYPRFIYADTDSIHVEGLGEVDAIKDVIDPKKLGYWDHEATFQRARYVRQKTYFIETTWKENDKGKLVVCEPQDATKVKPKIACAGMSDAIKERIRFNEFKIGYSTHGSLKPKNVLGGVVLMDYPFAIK

Nf DNA polymerase = molecular target: T2, Nf DNA polymerase (Bacillus phage Nf, UniProt B7SSM2 1-572); assay: EMSA
T2 sequence: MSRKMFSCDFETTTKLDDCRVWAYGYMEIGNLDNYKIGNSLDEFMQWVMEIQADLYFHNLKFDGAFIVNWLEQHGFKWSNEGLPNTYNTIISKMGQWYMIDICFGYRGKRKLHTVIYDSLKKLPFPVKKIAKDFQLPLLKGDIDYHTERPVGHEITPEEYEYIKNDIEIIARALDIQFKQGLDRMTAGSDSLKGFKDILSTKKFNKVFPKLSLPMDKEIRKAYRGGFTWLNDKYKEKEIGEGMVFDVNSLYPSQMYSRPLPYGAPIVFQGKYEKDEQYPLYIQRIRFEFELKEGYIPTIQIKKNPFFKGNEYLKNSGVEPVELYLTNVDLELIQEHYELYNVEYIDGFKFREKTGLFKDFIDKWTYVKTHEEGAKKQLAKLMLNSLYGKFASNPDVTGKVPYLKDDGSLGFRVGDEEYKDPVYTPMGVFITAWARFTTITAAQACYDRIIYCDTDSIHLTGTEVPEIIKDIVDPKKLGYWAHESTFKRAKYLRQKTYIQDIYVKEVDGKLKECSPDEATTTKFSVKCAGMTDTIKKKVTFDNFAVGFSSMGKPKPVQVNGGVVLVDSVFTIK

B1: sp1/sp1c+6 (15/21mer primer/template) (dsDNA)
DNA 1: GATCACAGTGAGTAC
DNA 2: TCTATTGTACTCACTGTGATC
GA-1 DNA polymerase
  binding result: no binding
Nf DNA polymerase
  Kd: 1.5 nM
